Test results published in patent US20250143272A1.

Experiments:
[1] = target: mouse NKP46 (NCR1) protein, NP_034876.2 (mouse) (UniProt Q8C567); assay: flow cytometry, spleen NK cells of C57BL/6 wild-type mouse
[2] = target: humanized NKP46 protein (engineered mouse NKP46 after humanization) (human/mouse chimera (human NKP46 amino acids 2-253 replacing mouse 2-253; rest mouse)); assay: flow cytometry, spleen NK cells of NKP46 humanized homozygous mouse
[3] = target: mouse NKP46 (NCR1) protein, NP_034876.2 (mouse) (UniProt Q8C567); assay: flow cytometry, peripheral blood NK cells of NKP46 humanized heterozygous mouse (cells carry mouse and humanized NKP46)
[4] = target: mouse NKP46 (NCR1) protein, NP_034876.2 (mouse) (UniProt Q8C567); assay: flow cytometry, spleen NK cells of C57BL/6 wild-type mouse; remark: listed apart in the source
[5] = target: mouse NKP46 (NCR1) protein, NP_034876.2 (mouse) (UniProt Q8C567); assay: flow cytometry, spleen NK cells of NKP46 humanized heterozygous mouse (cells carry mouse and humanized NKP46)
[6] = target: humanized NKP46 protein (engineered mouse NKP46 after humanization) (human/mouse chimera (human NKP46 amino acids 2-253 replacing mouse 2-253; rest mouse)); assay: flow cytometry, peripheral blood NK cells of NKP46 humanized homozygous mouse
[7] = target: mouse NKP46 (NCR1) protein, NP_034876.2 (mouse) (UniProt Q8C567); assay: flow cytometry, peripheral blood NK cells of C57BL/6 wild-type mouse
[8] = target: mouse NKP46 (NCR1) protein, NP_034876.2 (mouse) (UniProt Q8C567); assay: as above; remark: listed apart in the source
[9] = target: humanized NKP46 protein (engineered mouse NKP46 after humanization) (human/mouse chimera (human NKP46 amino acids 2-253 replacing mouse 2-253; rest mouse)); assay: flow cytometry, spleen NK cells of NKP46 humanized heterozygous mouse
[10] = target: humanized NKP46 protein (engineered mouse NKP46 after humanization) (human/mouse chimera (human NKP46 amino acids 2-253 replacing mouse 2-253; rest mouse)); assay: flow cytometry, peripheral blood NK cells of NKP46 humanized heterozygous mouse

Sequence of humanized NKP46 protein (engineered mouse NKP46 after humanization) (human/mouse chimera (human NKP46 amino acids 2-253 replacing mouse 2-253; rest mouse)) (chain, as listed by the source mutant limits assumed): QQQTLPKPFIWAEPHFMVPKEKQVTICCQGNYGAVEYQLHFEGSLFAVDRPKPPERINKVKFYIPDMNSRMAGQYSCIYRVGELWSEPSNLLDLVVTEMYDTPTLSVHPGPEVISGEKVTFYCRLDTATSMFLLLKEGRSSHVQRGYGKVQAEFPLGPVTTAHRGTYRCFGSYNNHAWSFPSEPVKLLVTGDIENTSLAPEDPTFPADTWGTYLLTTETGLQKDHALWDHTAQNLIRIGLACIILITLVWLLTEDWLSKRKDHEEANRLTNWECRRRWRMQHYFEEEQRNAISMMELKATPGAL
Sequence of UniProt Q8C567 (Q8C567 17-325 R131Q): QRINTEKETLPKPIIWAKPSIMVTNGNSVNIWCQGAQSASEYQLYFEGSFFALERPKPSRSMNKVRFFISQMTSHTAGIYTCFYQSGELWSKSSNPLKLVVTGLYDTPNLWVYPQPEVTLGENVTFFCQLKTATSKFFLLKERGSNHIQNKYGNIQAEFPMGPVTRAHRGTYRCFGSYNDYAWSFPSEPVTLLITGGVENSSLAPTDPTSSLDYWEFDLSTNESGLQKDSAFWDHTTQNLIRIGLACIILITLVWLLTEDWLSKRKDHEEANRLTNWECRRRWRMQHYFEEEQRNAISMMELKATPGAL

% mCD45+ mNK1.1+ mNKP46+ cells [1] [%] | % mCD45+ mNK1.1+ mNKP46+ cells [2] [%] | % mCD45+ mNK1.1+ mNKP46+ cells [3] [%] | % mCD45+ mNK1.1+ mNKP46+ cells [4] [%] | % mCD45+ mNK1.1+ mNKP46+ cells [5] [%] | % mCD45+ mNK1.1+ mNKP46+ cells [6] [%] | % mCD45+ mNK1.1+ mNKP46+ cells [7] [%] | % mCD45+ mNK1.1+ mNKP46+ cells [8] [%] | % mCD45+ mNK1.1+ hNKP46+ cells [1] [%] | % mCD45+ mNK1.1+ hNKP46+ cells [2] [%] | % mCD45+ mNK1.1+ hNKP46+ cells [9] [%] | % mCD45+ mNK1.1+ hNKP46+ cells [4] [%] | % mCD45+ mNK1.1+ hNKP46+ cells [6] [%] | % mCD45+ mNK1.1+ hNKP46+ cells [10] [%] | % mCD45+ mNK1.1+ hNKP46+ cells [7] [%] | % mCD45+ mNK1.1+ hNKP46+ cells [8] [%] | Substance
2.25 | 0.035 | 4.33 | 4.21 | 3.44 | 0.009 | 3.96 | 2.81 |  |  |  |  |  |  |  |  | APC anti-mouse CD335 (NKP46) Antibody (BioLegend, Catalog number: 137607)
 |  |  |  |  |  |  |  | 0.11 | 2.79 | 4.08 | 0.14 | 3.55 | 4.95 | 0.056 | 0.034 | PE anti-human CD335 (NKP46) Antibody (BioLegend, Catalog number: 331907)
